Source: patent publication US20090036382A1, “TGF-Beta Modulators and Use Thereof” (Universita' Degli Studi Di Padova, priority 2006, published 2009)
Blank lines part the entries; values can stand above or below the molecule they belong to.

Legend:
pro TGF-β1 processing = target: T1, pro TGF-β1 processing (Homo sapiens, UniProt P01137); experiment: Western blot of pro TGF-β1 conversion to LAP and mature TGF-β1 in transfected HEK293T cells; format: cell-based; details: for Intensity of the band corresponding to mature TGF-β1 / Precursor (pro TGF-β) band: HEK293T supernatant, anti-TGF-β1 Western-blot, emilin-1 cotransfected, peptide at 100 μM; for Intensity of the band corresponding to mature TGF-β1: FIG. 5A; for Precursor (pro TGF-β) band: FIG. 5A lanes 2 and 3
T1 construct: Flag; expressed in transfected cells; host or cells: HEK293T (A6); mouse embryo fibroblasts (A8)
Excerpt: (§1) • The construct for emilin 1 expression was engineered in pCS2 vector (Rupp R. A. et al., 1994, Genes Dev 8, 1311-1323) (for a physical map of the vector, see the site faculty.washington.edu/rtmoon/pcs2+.html) as described (Zanetti M. et al., 2004, Mol Cell Biol 24, 638-650); the vector used for proTGF-β expression in MEF and HEK293T cells is pCDNA3.1 (Invitrogen). Vectors containing the coding sequence for human pro TGF-β are described in Young and Murphy-Ullrich, 2004 (Young and Murphy-Ullrich, 2004, J Biol Chem 279, 38032-38039). The human pro TGF-β cDNA sequence is reported in the data bank (NP_000660; protein 000651). • The vector for Furin/SPC 1 expression is pCDNA3.1 (Invitrogen) • p15 and CAGA 12 promoter fragments are described in Jonk L. J. et al., 1998, J Biol Chem 273, 21145-21152 […]. • Constructs containing Flag sequences are described in Young G. D and Murphy-Ullrich J E, 2004, J Biol Chem 279, 38032-38039. • Constructs containing the Flag epitope (e.g. Flag-EMI-domain-GPI) were prepared as described in Chubet R G et al. Biotechniques 1996; 20(1):136-141 and detected by anti-Flag antibody (Kodak Inc.). • Constructs containing the GPI anchor were prepared as described in the Manual “Current Protocols in Cell Biology” Howard R. Petty Wayne State University, Detroit, Mich.; Juan S. Bonifacino, Mary Dasso, Joe B. Harford, Jennifer Lippincott-Schwartz, and Kenneth M. Yamada (eds.), Copyright C 2003 John Wiley & Sons, Inc. (GPI-anchor). In the construct Flag-EMI domain-GPI, the Flag sequence was inserted at the N-terminus after the signal peptide, while the GPI-anchor sequence was placed at the COOH-terminal end. • The construct emilin 1-KDEL was obtained by inserting the KDEL coding sequence described by Munro S., and Pelham, H. R., 1987, Cell 48, 899-907 upstream the emilin 1 STOP codon. • The construct containing the type II TGF-β receptor with HA epitope was described in Wrana J. L. et al., 1994, Nature 370, 341-347. • supplier of the drugs used: SP600125 (Calbiochem), SB431542 (Tocris). • Purified recombinant LAP and TGF-β1 proteins were purchased from (R&D Systems)
To verify whether emilin or its EMI domain inhibit TGF-β or its precursor, HEK293T cells were cotransfected with plasmids driving the expression of pro TGF-β1 (fused to the FLAG-domain, even though the antibody used were directed at LAP and TGF-β proteins) and emilin-1 (or EMI-domain). […] The anti-Flag antibody used was obtained from Kodak Inc; for the preparation of Flag constructs, see Younjg and Murphy-Ullrich (Young and Murphy-Ullrich, 2004).
As reported in the summary scheme above FIG. 5A, HEK293T cells were transfected with the plasmid encoding pro TGF-β1 (lane 1) and cotransfected with emilin-1 (lane 3) or treated with decanoyl-RVKR-CMK peptide (Decanoyl-Arg-Val-Lys-Arg-chloromethylketone, Alexis Corporation, Lausen, Switzerland) (lane 2) at a concentration of 100 μM. The peptide is an irreversible and competitive inhibitor of furin proprotein convertase and of other SPC family members (Proprotein Convertase); in addition, it inhibits pro-MMP2 dependent furin activation. The supernatant was then loaded on SDS-PAGE and detected by Western-blot with anti-TGF-β1 antibody. […] An increase of the precursor band in lanes 2 and 3 is […] to the decrease of TGF-β. Therefore it can be concluded that this assay detects an effect of emilin-1 on TGF-β1 processing that is similar to the effect of Furin inhibitors.

pro TGF-β1 [1] = experiment: Western blot of culture medium of MEF (-/- or +/+) transfected with Flag-proTGF-β1; format: cell-based, mouse; details: anti-Flag / anti-LAP, FIG. 5C
Description: In a subsequent experiment, Mouse Embryo Fibroblasts (MEF) derived from ko (−/−) or wild type (+/+) mice were transfected with a plasmid encoding Flag-proTGF-β1; the Furin inhibitor decanoyl-RVKR-CMK was added to the indicated samples. The culture medium was then subjected to western blotting with anti-Flag (FIG. 5C, upper inset) or anti-LAP (middle inset) antibody. […] To control the expression levels, western blot (in the lower inset) with an anti-β gal antibody was developed instead.

mature TGF-β1 = experiment: CAGA12-lux luciferase reporter in HEK293T cells treated with recombinant TGF-β1; format: cell-based; details: 5 ng/ml recombinant TGF-β1, expression vector 500 ng, FIG. 2B
Description: (§2) To verify how emilin or the EMI domain can contrast TGF-β1 activity independently from receptor binding, HEK293T cells were transfected with a construct coding luciferase placed under control of a TGF-β activated promoter: CAGA12-lux (Jonk et al., 1998) alone or in combination with a emilin1 expression vector (500 ng) as shown in FIG. 2B. After transfection, cells were treated (black bar) or not treated (white bar) with 5 ng/ml recombinant TGF-1 (lanes 1 and 2). Column bars from 3 to 6 report luciferase expression values in experiments with cells co-transfected with the expression vector for emilin1 (or EMI-domain or emilin1ΔEMI) alone (white bars) or in combination with the vector encoding pro TGF-β1 (black bars). Values show the mean±st. dev.

pro TGF-β1 [2] = experiment: CAGA12-lux luciferase reporter in HEK293T cells co-transfected with pro TGF-β1 vector; format: cell-based, human
Excerpt: as §1, §2
As further validation of the above observations, HEK293T cells were cotransfected with expression plasmids carrying the cDNAs shown in the summary scheme above the figure, along with CAGA12-lux and CMV-lacZ constructs, and luciferase expression levels were measured.

pro TGF-β = target: T2, pro TGF-β (Homo sapiens, UniProt P01137); experiment: Co-immunoprecipitation / Western blot of EMI domain or emilin1 with pro TGF-β in HEK293T cells; format: binding; details: HEK293T cell extracts or culture medium; anti-Flag / anti-LAP IP; FIG. 4A-4C
T2 construct: expressed in transfected cells; host or cells: HEK293T
Excerpt: • The construct for emilin 1 expression was engineered in pCS2 vector (Rupp R. A. et al., 1994, Genes Dev 8, 1311-1323) (for a physical map of the vector, see the site faculty.washington.edu/rtmoon/pcs2+.html) as described (Zanetti M. et al., 2004, Mol Cell Biol 24, 638-650); the vector used for proTGF-β expression in MEF and HEK293T cells is pCDNA3.1 (Invitrogen). Vectors containing the coding sequence for human pro TGF-β are described in Young and Murphy-Ullrich, 2004 (Young and Murphy-Ullrich, 2004, J Biol Chem 279, 38032-38039). […]

pro TGF-β processing = experiment: Cell-mixing experiment, responder (CAGA12-lux) and stimulator (proTGF-β) HEK293T cells; format: cell-based; details: emilin 1 cotransfected in S cells or only in R cells; FIG. 6A
Description: To determine where emilin and pro TGF-β interact (whether intracellularly or extracellularly), two types of HEK293T cells, responder (R) and stimulator (S), were prepared by transfecting the CAGA12-lux plasmid in the former and of the proTGF-β coding plasmid in the latter cells. Therefore, R cells respond to TGF-β by activating the luciferase reporter gene, while S cells produce TGF-β and can stimulate the former cells only if TGF-β is secreted. To determine where emilin-1 blocks TGF-β processing, R or S cells were cotransfected with the emilin 1 coding plasmid, and this transfection is indicated with the initial +E under the corresponding column bar in FIG. 6A.
To be able to compare the results obtained under the various conditions, all cells were cotransfected also with the CMV-lacZ vector. Mock refers to cells transfected with CMV-lacZ plasmid alone. […] Therefore, the inhibition of pro TGF-β processing by emilin 1 occurs in the extracellular compartment.

T1 sequence (P01137 30-390): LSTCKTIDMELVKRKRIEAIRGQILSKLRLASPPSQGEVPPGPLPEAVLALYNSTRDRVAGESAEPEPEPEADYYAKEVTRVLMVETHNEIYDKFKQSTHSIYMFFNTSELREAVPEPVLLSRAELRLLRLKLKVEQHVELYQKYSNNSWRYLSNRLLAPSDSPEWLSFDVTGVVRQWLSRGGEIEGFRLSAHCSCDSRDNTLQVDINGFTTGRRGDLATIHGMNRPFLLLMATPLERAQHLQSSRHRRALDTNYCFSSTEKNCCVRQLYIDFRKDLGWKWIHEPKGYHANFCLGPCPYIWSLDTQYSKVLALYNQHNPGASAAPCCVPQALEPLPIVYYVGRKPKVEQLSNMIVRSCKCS
T2 sequence (P01137 30-390): as above

Molecule: Decanoyl-Arg-Val-Lys-Arg-chloromethylketone [decanoyl-RVKR-CMK, reference compound]
Intensity of the band corresponding to mature TGF-β1 (pro TGF-β1 processing): decreases | Precursor (pro TGF-β) band (pro TGF-β1 processing): increase | pro TGF-β1 levels in culture medium (pro TGF-β1 [1]): results in increased pro TGF-β1 levels

Interaction with pro TGF-β (co-immunoprecipitation) (pro TGF-β): co-precipitates | Intensity of the band corresponding to mature TGF-β1 (pro TGF-β1 processing): decreases | Precursor (pro TGF-β) band (pro TGF-β1 processing): increase
B1: emilin-1: emilin family extracellular matrix protein carrying an EMI domain, GenBank NP—008977; expressed from pCS2 vector by transfection (protein)
chain: ASYPPRGFSLYTGSSGALSPGGPQAQIAPRPASRHRNWCAYVVTRTVSCVLEDGVETYVKYQPCAWGQPQCPQSIMYRRFLRPRYRVAYKTVTDMEWRCCQGYGGDDCAESPAPALGPASSTPRPLARPARPNLSGSSAGSPLSGLGGEGPGESEKVQQLEEQVQSLTKELQGLRGVLQGLSGRLAEDVQRAVETAFNGRQQPADAAARPGVHETLNEIQHQLQLLDTRVSTHDQELGHLNNHHGGSSSSGGSRAPAPASAPPGPSEELLRQLEQRLQESCSVCLAGLDGFRRQQQEDRERLRAMEKLLASVEERQRHLAGLAVGRRPPQECCSPELGRRLAELERRLDVVAGSVTVLSGRRGTELGGAAGQGGHPPGYTSLASRLSRLEDRFNSTLGPSEEQEESWPGAPGGLSHWLPAARGRLEQLGGLLANVSGELGGRLDLLEEQVAGAMQACGQLCSGAPGEQDSQVSEILSALERRVLDSEGQLRLVGSGLHTVEAAGEARQATLEGLQEVVGRLQDRVDAQDETAAEFTLRLNLTAARLGQLEGLLQAHGDEGCGACGGVQEELGRLRDGVERCSCPLLPPRGPGAGPGVGGPSRGPLDGFSVFGGSSGSALQALQGELSEVILSFSSLNDSLNELQTTVEGQGADLADLGATKDRIISEINRLQQEATEHATESEERFRGLEEGQAQAGQCPSLEGRLGRLEGVCERLDTVAGGLQGLREGLSRHVAGLWAGLRETNTTSQMQAALLEKLVGGQAGLGRRLGALNSSLQLLEDRLHQLSLKDLTGPAGEAGPPGPPGLQGPPGPAGPPGSPGKDGQEGPIGPPGPQGEQGVEGAPAAPVPQVAFSAALSLPRSEPGTVPFDRVLLNDGGYYDPETGVFTAPLAGRYLLSAVLTGHRHEKVEAVLSRSNQGVARVDSGGYEPEGLENKPVAESQPSPGTLGVFSLILPLQAGDTVCVDLVMGQLAHSEEPLTIFSGALLYGDPELEHA
Effect on luciferase expression induced by mature TGF-β (mature TGF-β1): does not antagonize mature TGF-β | Luciferase expression stimulated by transfected pro TGF-β (pro TGF-β1 [2]; CAGA12-lux and CMV-lacZ, FIG. 6C): inhibits the stimulating action of transfected pro TGF-β | Effect on luciferase expression induced by pro TGF-β1 (pro TGF-β1 [2]; CAGA12-lux, co-transfection with pro TGF-β1 vector, FIG. 2B, 2C): inhibits pro TGF-β | Conversion of pro TGF-β1 to LAP and mature TGF-β1 (band intensity) (pro TGF-β1 processing; HEK293T cotransfected, cell extracts anti-LAP, supernatants anti-TGF-β1, FIG. 4D): inhibit the conversion of pro TGF-β1 | Activation of CAGA12-lux reporter on mixing R and S cells (pro TGF-β processing): inhibits activation of the reporter construct
